Laboratory results taken from the supplement of paper PMC9170038.

System: MS2 coat protein
Assay: apparent KD of MS2 coat protein; designed switch direction (-1 OFF switch, 1 ON switch): -1; higher = weaker reporter binding
How it was run: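 The reported apparent KD is a per-design median over clusters, from curve fits of normalised cluster fluorescence. Protein titrations used SNAP-549-labelled MS2 coat protein, doubled from 0.7 or 1.5 nM to 3 µM, in Tris-HCl pH 7.5 buffer with KCl, MgCl2, BSA, DTT, tRNA and Tween-20, with no input, 200 uM small-molecule ligand, or an oligonucleotide input. The RNA switches were transcribed on Illumina chips by stalled E. coli RNA polymerase.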

[1] = input ligand: microRNA oligo, concentration not stated
[2] = Eterna round: R95, input ligand: microRNA oligo, concentration not stated

Row | Sequence | apparent KD of MS2 coat protein (input ligand: FMN 200 uM) | apparent KD of MS2 coat protein [1] | apparent KD of MS2 coat protein (input ligand: none) | apparent KD of MS2 coat protein (Eterna round: R95, input ligand: FMN 200 uM) | apparent KD of MS2 coat protein [2] | apparent KD of MS2 coat protein (Eterna round: R95, input ligand: none)
1 | AUAAAGAACUCAGGAUAUUAGAGAAACGGACAUGAGGAUCACCCAUGUGCGCCUGAUGCCGAGAAUAAGAAGGGAGAAUAGAAA [Rearbi] (Eterna round: R96, puzzle: Exclusion NG 2) | 131 nM | 16.7 nM | 27.4 nM | – | – | –
2 | UAUCCACAUGAGGAUCACCCAUGUGAGGAUAUGUCCAUAUUCGGCAAAUCGGAUAUGGACAGAAGGCACACCGG [JR_Exclusion1_Sub011] (Eterna round: R96, puzzle: Exclusion 1) | 114 nM | 28.5 nM | 35.2 nM | – | – | –
3 | AAGAGCGUAGGAUAUACAUGAGGAUCACCCAUGUGAGGAGGGAAAAGGAGGUGUGGAAGUAGAAGGACGGAGUG [JR_Exclu3_Sub080] (puzzle: Exclusion 3) | – | – | – | 31.8 nM | 30.9 nM | 36.5 nM
4 | GUAUAACAUGUAGGAUAUGCAUGGCGAAGCUAUGCAGAAGGACAUGAGGAUCACCCAUGUAAUAGCGUCUGCGUACAGAUGCAA [Mat - Exclusion NG 1 - Mod of JL - D91] (Eterna round: R96, puzzle: Exclusion NG 1) | 186 nM | 29.4 nM | 38.7 nM | – | – | –
5 | CAGUACUGAGGAUAUACAUGAGGAUCACCCAUGUGCUCUAGCUAGGAUACUAGCAUUAGUAGAAGGCAGUACUG [Fiskers Ex 3 828 mod 8] (Eterna round: R96, puzzle: Exclusion 3) | 132 nM | 14.4 nM | 19.7 nM | – | – | –
6 | AGCUGACGAGGAUAUACAUGAGGAUCACCCAUGUUGGUCAAGCGACUUCGGUCGCAAUGUAGAAGGCGUCAGCU [E3/8-A4] (Eterna round: R97, puzzle: Exclusion 3) | 263 nM | – | 430 nM | – | – | –
7 | GACGUGUAAGGAUAUGAUGUUGCAAACAAGACCCUUAAUCAUUAGAAGGUACAUGAGGAUCACCCAUGUAGGGU [Eternabot (L2) Solution 100] (Eterna round: R97, puzzle: Exclusion 4) | 129 nM | – | 140 nM | – | – | –
8 | CUUAGCGUAGGAUAUUAGUACAUGAACAUGAGGAUCACCCAUGUGAGGUGGGUCUUAGAUUAAGAAGGGCGAAGAA [EX5 #32] (Eterna round: R97, puzzle: Exclusion 5) | 221 nM | – | 249 nM | – | – | –
9 | AAGGGACAUGAGGAUCACCCAUGUCAGGAUAUUAGUGUGAGUCACCUUGUGAAUACACUAAGAAGGGAUAGAAA [Eternabot (Original) Solution 38] (Eterna round: R97, puzzle: Exclusion 1) | 69.8 nM | – | 84.5 nM | – | – | –
10 | UAUAUAUAGUAAGGAUAUGUAUAUAUUUGAUAAACAGAAGGUACUGACAUGAGGAUCACCCAUGUUUUAGUGUGGGCAUGUAGA [JMF's solution 64] (Eterna round: R96, puzzle: Exclusion NG 1) | – | 48.4 nM | – | – | – | –
11 | CCAUCACAUGAGGAUCACCCAUGUUAGGAUAUCGUGCUGAUACCAUGUAUUGAAGUAGCGAGAAGGAGCGUUGG [Eternabot (L1) Solution 53] (Eterna round: R97, puzzle: Exclusion 1) | 83.6 nM | – | 48 nM | – | – | –
12 | AGCAGACGAGGAUAUGAUAAUUAAUACAUGAGGAUCACCCAUGUAAUACUGAUCGAUAGAUCAGAAGGCGUCUGCU [E5/3-A2] (Eterna round: R97, puzzle: Exclusion 5) | 14.7 nM | – | 16.4 nM | – | – | –
13 | CUUGCGGAUAAAGGAUAUUGCGGUGACCGGCUCGGCGUACCGAGCCUACAUGAGGAUCACCCAUGUAAGAAGGUUGUCGCUGGU [JL ViennaUCT Qudice mod 3] (Eterna round: R96, puzzle: Exclusion NG 2) | 12.9 nM | 8.45 nM | 14.1 nM | – | – | –
14 | AUGCCGGUCCUCUCAGGUGUACAUGAGGAUCACCCAUGUCACGAGGAUAUCUAAGCGUGGUGGCCAGAGAAGGUGUGACAUGCU [Atibequ] (Eterna round: R96, puzzle: Exclusion NG 3) | 38.7 nM | 17.2 nM | 22.8 nM | – | – | –
15 | AUUUUGUCAGGAUAUGAGUAGUAGGAUGAGAGUGCUACUACUUAGAAGGGACAUGAGGAUCACCCAUGUCUUCC [Bring Us a Shrubbery-06] (puzzle: Exclusion 4) | – | – | – | – | 13.8 nM | –
